Where two headings read alike, the source gives them in different places.
Assays:
CodY (Bacillus subtilis) = test: EMSA; conditions: 2 mM GTP + 10 mM each Ile, Leu, Val; 150 nM without effectors
[1] = test system: CodY R214E R214E (Bacillus subtilis); test: EMSA; conditions: GTP + ILV; also >500 without effectors
[2] = test system: CodY A207D A207D (Bacillus subtilis); test: EMSA; conditions: GTP + ILV; also >500 without effectors
[3] = test system: CodY S215T S215T (Bacillus subtilis); test: EMSA
[4] = test system: CodY (Staphylococcus aureus); test: EMSA; conditions: concentration giving shift; 2 mM GTP + 10 mM each Ile, Val, Leu
CodY [5] = target: T1, CodY (Bacillus subtilis, UniProt P39779); test: Gel shift assay, stimulation of CodY binding to target DNA by effectors; design: species or system B. subtilis; conditions: for stimulation of CodY binding to new target genes and dpp promoter region: amino acids 10-30 mM
T1 sequence (P39779 1-259): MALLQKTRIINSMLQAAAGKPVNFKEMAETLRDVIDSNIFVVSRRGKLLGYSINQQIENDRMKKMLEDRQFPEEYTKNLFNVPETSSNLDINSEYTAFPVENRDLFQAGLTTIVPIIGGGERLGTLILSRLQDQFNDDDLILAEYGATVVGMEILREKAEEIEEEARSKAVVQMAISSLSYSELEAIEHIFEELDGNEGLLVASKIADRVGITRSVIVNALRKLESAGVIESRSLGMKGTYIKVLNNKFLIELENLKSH
Description: A test of whether BCAAs have any direct effect on CodY activity was performed. […] In all cases, the apparent dissociation constant for binding was substantially below the concentration of CodY inside the cell (4 μM, see below). […] By regulating gene expression in response to both the GTP level and the availability of certain amino acids, CodY can insure that the cell responds in a coherent way to many types of nutritional stress.
The effects of GTP and BCAAs at different CodY targets can vary. At several target sites, BCAAs and GTP were each found to have small stimulatory effects on binding (in a gel shift assay), but the mixture strongly stimulates (FIG. 1). […] Some genes may respond to CodY in its GTP-bound conformation, other genes to CodY in its BCAA-bound conformation, and still other genes to CodY bound to both kinds of effectors. These variations could reflect differences in specificity of binding or differences in affinity of binding.
The concentration dependence of stimulation of DNA binding by effectors is assessed. At the dpp promoter, GTP at 600 μM increased the fraction of DNA that was bound by a constant concentration of CodY (in a gel shift assay) from 10% to 50%. Titration assays of this type, using varying concentrations of GTP, isoleucine, and valine, provide a measure of the effective concentrations of each of these effectors.

CodY [6] = target: T1, CodY; conditions: cited from earlier work
CodY [7] = target: T1, CodY; conditions: cited from earlier work; remark: listed apart in the source
[8] = test system: ilvB promoter lacZ fusions; conditions: GTP limitation by addition of decoyinine; cited from earlier work
wild-type cells = conditions: excess nutrients; cited from earlier work
dpp-lacZ = dpp-lacZ expression in vivo (β-galactosidase); conditions: for β-galactosidase expression (Miller units) in mid-exponential cells: dpp-lacZ; for derepression of expression in vivo: versus wild type
dpp promoter region = test: Gel mobility shift assay of CodY binding to the dpp promoter region; conditions: CodY concentration that shifted 50% of the DNA
[9] = read-out: Estimated KD (nM), +GTP, ILV, GTP (2 mM) and isoleucine, valine and leucine (10 mM each)
[10] = read-out: Estimated KD (nM), No effectors

Molecule: dpp promoter region
- Kd (CodY (Bacillus subtilis)): 0.02 µM
- Kd [1]: > 0.5 µM
- Kd [2]: > 0.5 µM
- Kd [3]: > 0.5 µM

Molecule: nuc promoter region
- binding [4]: 160 nM

Molecule: CC(C)[C@H](N)C(=O)O [valine]
- stimulation of CodY binding to new target genes and dpp promoter region (CodY [5]): stimulated significantly

Molecule: hla promoter region
- binding [4]: 160 nM

Molecule: Nc1nc2c(ncn2[C@@H]2O[C@H](COP(=O)(O)OP(=O)(O)OP(=O)(O)O)[C@@H](O)[C@H]2O)c(=O)[nH]1 [GTP, guanosine triphosphate]
- repression of dpp transcription by CodY (CodY [6]; 300 μM GTP (typical of early stationary phase cells)): almost no repression
- inhibition of dpp transcription by CodY (CodY [6]; 2 mM GTP): ~80%
- EC50 (CodY [6]; read-out: GTP concentration giving 50% repression of transcription from the dpp promoter): ~1500 µM
- fraction of DNA bound by a constant concentration of CodY (CodY [5]; dpp promoter, GTP at 600 μM, 10% without): 50%
- effect on CodY binding at the yhdG regulatory region (CodY [5]; yhdG regulatory region, alone or in combination): only a small effect
- binding to CodY compared with ATP, CTP or UTP (CodY [7]): more avidly

Molecule: CC[C@H](C)[C@H](N)C(=O)O [isoleucine]
- stimulation of CodY binding to new target genes and dpp promoter region (CodY [5]): stimulated significantly

Molecule: C=C1O[C@@](CO)(n2cnc3c(N)ncnc32)[C@H](O)[C@@H]1O [decoyinine]
- induction of ilvB-lacZ fusions with or without T-box [8]: induced both fusions
- sporulation of wild-type cells (wild-type cells): failed to sporulate efficiently unless decoyinine was added

Molecule: CC(C)C[C@H](N)C(=O)O [leucine]
- stimulation of CodY binding to new target genes and dpp promoter region (CodY [5]): not

B1: A207D (protein, UniProt P39779 2-259, looked up, variant A207D)
Global transcriptional …: ALLQKTRIINSMLQAAAGKPVNFKEMAETLRDVIDSNIFVVSRRGKLLGYSINQQIENDRMKKMLEDRQFPEEYTKNLFNVPETSSNLDINSEYTAFPVENRDLFQAGLTTIVPIIGGGERLGTLILSRLQDQFNDDDLILAEYGATVVGMEILREKAEEIEEEARSKAVVQMAISSLSYSELEAIEHIFEELDGNEGLLVASKIDDRVGITRSVIVNALRKLESAGVIESRSLGMKGTYIKVLNNKFLIELENLKSH
- derepression in vivo (dpp-lacZ): severe derepression
- β-galactosidase expression (Miller units) in mid-exponential cells (dpp-lacZ): 130 Miller units
- Kd (dpp promoter region; [9]): > 500 nM
- Kd (dpp promoter region; [10]): > 500 nM

B2: S215T (protein, UniProt P39779 2-259, looked up, variant S215T)
Global transcriptional …: ALLQKTRIINSMLQAAAGKPVNFKEMAETLRDVIDSNIFVVSRRGKLLGYSINQQIENDRMKKMLEDRQFPEEYTKNLFNVPETSSNLDINSEYTAFPVENRDLFQAGLTTIVPIIGGGERLGTLILSRLQDQFNDDDLILAEYGATVVGMEILREKAEEIEEEARSKAVVQMAISSLSYSELEAIEHIFEELDGNEGLLVASKIADRVGITRTVIVNALRKLESAGVIESRSLGMKGTYIKVLNNKFLIELENLKSH
- β-galactosidase expression (Miller units) in mid-exponential cells (dpp-lacZ): 150 Miller units
- derepression of expression in vivo (dpp-lacZ): 2 fold
- Kd (dpp promoter region; [9]): > 500 nM

B3: V218D (protein, UniProt P39779 2-259, looked up, variant V218D)
Global transcriptional …: ALLQKTRIINSMLQAAAGKPVNFKEMAETLRDVIDSNIFVVSRRGKLLGYSINQQIENDRMKKMLEDRQFPEEYTKNLFNVPETSSNLDINSEYTAFPVENRDLFQAGLTTIVPIIGGGERLGTLILSRLQDQFNDDDLILAEYGATVVGMEILREKAEEIEEEARSKAVVQMAISSLSYSELEAIEHIFEELDGNEGLLVASKIADRVGITRSVIDNALRKLESAGVIESRSLGMKGTYIKVLNNKFLIELENLKSH
- derepression in vivo (dpp-lacZ): severe derepression
- β-galactosidase expression (Miller units) in mid-exponential cells (dpp-lacZ): 14 Miller units
- Kd (dpp promoter region; [9]): 150 to 200 nM

B4: V218A (protein, UniProt P39779 2-259, looked up, variant V218A)
Global transcriptional …: ALLQKTRIINSMLQAAAGKPVNFKEMAETLRDVIDSNIFVVSRRGKLLGYSINQQIENDRMKKMLEDRQFPEEYTKNLFNVPETSSNLDINSEYTAFPVENRDLFQAGLTTIVPIIGGGERLGTLILSRLQDQFNDDDLILAEYGATVVGMEILREKAEEIEEEARSKAVVQMAISSLSYSELEAIEHIFEELDGNEGLLVASKIADRVGITRSVIANALRKLESAGVIESRSLGMKGTYIKVLNNKFLIELENLKSH
- Kd (dpp promoter region; [9]): 100 to 200 nM
- Kd (dpp promoter region; [10]): 250 to 500 nM

B5: WT: wild-type B. subtilis CodY, a GTP-activated repressor protein (protein)
chain: ALLQKTRIINSMLQAAAGKPVNFKEMAETLRDVIDSNIFVVSRRGKLLGYSINQQIENDRMKKMLEDRQFPEEYTKNLFNVPETSSNLDINSEYTAFPVENRDLFQAGLTTIVPIIGGGERLGTLILSRLQDQFNDDDLILAEYGATVVGMEILREKAEEIEEEARSKAVVQMAISSLSYSELEAIEHIFEELDGNEGLLVASKIADRVGITRSVIVNALRKLESAGVIESRSLGMKGTYIKVLNNKFLIELENLKSH
- β-galactosidase expression (Miller units) in mid-exponential cells (dpp-lacZ): 6 Miller units
- Kd (dpp promoter region; [9]): 20 nM
- Kd (dpp promoter region; [10]): 150 nM

B6: R214K (protein, UniProt P39779 2-259, looked up, variant R214K)
Global transcriptional …: ALLQKTRIINSMLQAAAGKPVNFKEMAETLRDVIDSNIFVVSRRGKLLGYSINQQIENDRMKKMLEDRQFPEEYTKNLFNVPETSSNLDINSEYTAFPVENRDLFQAGLTTIVPIIGGGERLGTLILSRLQDQFNDDDLILAEYGATVVGMEILREKAEEIEEEARSKAVVQMAISSLSYSELEAIEHIFEELDGNEGLLVASKIADRVGITKSVIVNALRKLESAGVIESRSLGMKGTYIKVLNNKFLIELENLKSH
- derepression of expression in vivo (dpp-lacZ): 2 fold

B7: R214E (protein, UniProt P39779 2-259, looked up, variant R214E)
Global transcriptional …: ALLQKTRIINSMLQAAAGKPVNFKEMAETLRDVIDSNIFVVSRRGKLLGYSINQQIENDRMKKMLEDRQFPEEYTKNLFNVPETSSNLDINSEYTAFPVENRDLFQAGLTTIVPIIGGGERLGTLILSRLQDQFNDDDLILAEYGATVVGMEILREKAEEIEEEARSKAVVQMAISSLSYSELEAIEHIFEELDGNEGLLVASKIADRVGITESVIVNALRKLESAGVIESRSLGMKGTYIKVLNNKFLIELENLKSH
- derepression in vivo (dpp-lacZ): severe derepression
- β-galactosidase expression (Miller units) in mid-exponential cells (dpp-lacZ): 94 Miller units
- Kd (dpp promoter region; [9]): > 500 nM
- Kd (dpp promoter region; [10]): > 500 nM

B8: S215F (protein, UniProt P39779 2-259, looked up, variant S215F)
Global transcriptional …: ALLQKTRIINSMLQAAAGKPVNFKEMAETLRDVIDSNIFVVSRRGKLLGYSINQQIENDRMKKMLEDRQFPEEYTKNLFNVPETSSNLDINSEYTAFPVENRDLFQAGLTTIVPIIGGGERLGTLILSRLQDQFNDDDLILAEYGATVVGMEILREKAEEIEEEARSKAVVQMAISSLSYSELEAIEHIFEELDGNEGLLVASKIADRVGITRFVIVNALRKLESAGVIESRSLGMKGTYIKVLNNKFLIELENLKSH
- derepression in vivo (dpp-lacZ): severe derepression
- β-galactosidase expression (Miller units) in mid-exponential cells (dpp-lacZ): 12 Miller units
- Kd (dpp promoter region; [9]): 350 to 400 nM

— patent publication US20070142318A1, “Compositions, methods and kits for repressing virulence in gram positive bacteria” (priority 2004, published 2007)
